Measurements published in US10351623B2, “Antagonists of IL-17 isoforms and their uses” (Orega Biotech, priority 2012, dated 2019).

B1: IL-17B: recombinant human IL-17B, interleukin 17 isoform that binds IL-17RB (protein)
chain: QPRSPKSKRKGQGRPGPLAPGPHQVPLDLVSRMKPYARMEEYERNIEEMVAQLRNSSELAQRKCEVNLQLWMSNKRSLSPWGYSINHDPSRIPVDLPEARCLCLGCVNPFTMQEDRSMVSVPVFSQVPVRRRLCPPPPRTGPCRQRAVMETIAVGCTCIF
B2: IL-17E: recombinant human IL-17E (=IL-25), interleukin 17 isoform (protein, UniProt Q9H293 33-177, looked up)
Interleukin-25: YSHWPSCCPSKGQDTSEELLRWSTVPVPPLEPARPNRHPESCRASEDGPLNSRAISPWRYELDRDLNRLPQDLYHARCLCPHCVSLQTGSHMDPRGNSELLYHNQTVFYRRPCHGEKGTHKGYCLERRLYRVSLACVCVRPRVMG
B3: IL-17F: recombinant human IL-17F, interleukin 17 isoform (protein, UniProt Q96PD4 31-163, looked up)
Interleukin-17F: RKIPKVGHTFFQKPESCPPVPGGSMKLDIGIINENQRVSMSRNIESRSTSPWNYTVTWDPNRYPSEVVQAQCRNLGCINAQGKEDISMNSVPIQQETLVVRRKHQGCSVSFQLEKVLVTVGCTCVTPVIHHVQ
B4: IL-17C: recombinant human IL-17C, interleukin 17 isoform that binds IL-17RE (protein)
chain: HHDPSLRGHPHSHGTPHCYSAEELPLGQAPPHLLARGAKWGQALPVALVSSLEAASHRGRHERPSATTQCPVLRPEEVLEADTHQRSISPWRYRVDTDEDRYPQKLAFAECLCRGCIDARTGRETAALNSVRLLQSLLVLRRRPCSRDGSGLPTPGAFAFHTEFIHVPVGCTCVLPRSV
B5: IL-17D: recombinant human IL-17D, interleukin 17 isoform, receptor unknown (protein, UniProt Q8TAD2 16-202, looked up)
Interleukin-17D: AGAPRAGRRPARPRGCADRPEELLEQLYGRLAAGVLSAFHHTLQLGPREQARNASCPAGGRPADRRFRPPTNLRSVSPWAYRISYDPARYPRYLPEAYCLCRGCLTGLFGEEDVRFRSAPVYMPTVVLRRTPACAGGRSVYTEAYVTIPVGCTCVPEPEKDADSINSSIDKQGAKLLLGPNDAPAGP

Assays:
[1] = system: normal human dermal fibroblasts (NHDF); test: IL-6 ELISA; assay type: cell-based; details: 30 ng/ml recombinant cytokine, 24 h culture, ELISA of supernatant
Experimental: FIG. 12: IL-17B, IL-17C, IL-17D, IL-17E and IL-17F increase the production of pro-inflammatory IL-6 by normal human dermal fibroblasts (NHDF). NHDF were cultured for 24 h in complete adequate complete medium alone (medium) or in the presence of 30 ng/ml of recombinant human IL-17B, IL-17C, IL-17D, IL-17E or IL-17F as indicated. All isoforms increased the production of pro-inflammatory IL-6 by NHDF.
Normal human dermal fibroblasts (NHDF) were cultures in complete medium alone or supplemented with 30 ng/ml L of recombinant IL-17B, IL17C or IL17D as indicated. After […] of culture, supernatant are collected. IL-6 ELISA is performed with human IL-6 development kit (Peprotech) following manufacturer's instructions.

[2] = system: MDA-MB436 breast cancer cells; test: Cell proliferation assay ([3H]-TdR); assay type: cell-based, human; details: [3H]-TdR incorporation at 72 h, increasing doses of recombinant cytokine (0 to 100 ng/ml)
Experimental: (§1) FIGS. 7A-7D: IL-17B increases the proliferation of breast cancer cells. T47D (A), MCF7 (B), MDA-MB436 (C) and MDA-MB468 (D) cells were cultured in adequate complete medium supplemented with increasing doses of recombinant human IL-17B as indicated. Cell proliferation was assessed at 72 h using tritiated thymidine ([3H]-TdR) incorporation protocol.
(§2) HCT116, HT29, and SKOV3 cell lines were cultured in McCoy5a medium (Life technologies) supplemented with 10% FCS, 2% glutamine and 1% antibiotics (Life technologies). MCF7, T47D, MDA-MB231 and BT20 cell lines were cultured in RPMI 1640 medium supplemented as described above. SKMEL5, LOVO, OAW42, MDA-MB435S, MDA-MB436, MDA-MB468 cell lines and normal human dermal fibroblasts (NHDF) were grown in DMEM/F12 medium (Life Technologies) supplemented as described above. MCF10A cell line was maintained in DMEM/F12 medium (Life Technologies) supplemented as described above and with 10 μg/ml insulin, 0.5 μg/ml hydrocortisone, 20 ng/ml EGF and 100 ng/ml cholera toxin. MDA-MB157 cell line was cultured in DMEM medium (Life technologies) supplemented with 10% FCS, 2% glutamine and 1% antibiotics. All cells were kept at 37° C. in 5% CO2 atmosphere incubator.
(§3) 400 cells are seeded per well in 96 well plate (Corning) and kept overnight in adequate complete medium. […] [3H]-TdR uptake was measured using PerkinElmer microβ2 2450 microplate counter.

[3] = system: MDA-MB468 breast cancer cells; test: Cell proliferation assay ([3H]-TdR); assay type: cell-based, human; details: [3H]-TdR incorporation at 72 h, increasing doses of recombinant cytokine (0 to 100 ng/ml)
Experimental: as §1, §2, §3

[4] = system: OAW42 ovarian cancer cells; test: Matrigel invasion assay; assay type: cell-based, human; details: cultured 14 days with 100 ng/ml, Matrigel Invasion Chambers, 22 hours
Experimental: (§4) FIGS. 8A-8C: IL-17B increases migration and invasion of breast and ovarian cancer cells. OAW42 (ovarian, A) and MCF7 (breast, B) cells were cultured in complete adequate complete medium alone (Ctl) or supplemented with 100 ng/ml of recombinant human IL-17B (IL-17B) as indicated. Cell migration was evaluated in transwell migration assay. (C) OAW42 cells were cultured for 14 days in adequate complete medium alone (Ctl) or supplemented with 100 ng/ml of recombinant human IL-17B (IL-17B) as indicated. Cell invasiveness was then evaluated in Matrigel Invasion Chambers.
Cells were cultured in adequate complete medium supplemented with 100 ng/ml of recombinant cytokines for 2 days (MDA-MB231) or 14 days (OAW42). Matrigel Invasion Chambers (BD BioCoat™ BD Matrigel™ Invasion Chamber, 24-well Cell culture inserts) were then used to study the invasiveness of cancer cells. 2.10^4 cells are then added to the upper compartment of the chambers in 1% FCS adequate medium alone or supplemented with 100 ng/ml of recombinant cytokines as indicated. Medium supplemented with 10% FCS is added to the lower wells of the chambers. Plates are incubated for 22 hours at 37° C. […] Images of cells from three representative fields are captured digitally and the number of cells present on the transwell is counted.

T47D breast cancer cells = test: Cell proliferation assay ([3H]-TdR); assay type: cell-based, human; details: [3H]-TdR incorporation at 72 h, increasing doses of recombinant cytokine (0 to 100 ng/ml)
Experimental: as §1
(§5) FIGS. 10A-10F: IL-17C and IL-17D increase the proliferation of breast and ovarian cancer cells. OAW42 (ovarian, A), MCF7 (breast, B) and T47D (breast, C) cells were cultured in adequate complete medium supplemented with increasing doses of recombinant human IL-17C as indicated. Cell proliferation was assessed at 72 h using tritiated thymidine ([3H]-TdR) incorporation protocol. OAW42 (D), MCF7 (E) and T47D (F) cells were cultured in adequate complete medium supplemented with increasing doses of recombinant human IL-17D as indicated. Cell proliferation was assessed at 72 h using tritiated thymidine ([3H]-TdR) incorporation protocol.
as §2
(§6) 400 cells are seeded per well in 96 well plate (Corning) and kept overnight in adequate complete medium. Medium is then removed and replaced with adequate complete medium supplemented with 0 to 100 ng/ml of cytokines as indicated. Each condition is performed in triplicate. After 72 h of culture, cells were pulsed for 16 h with tritiated thymidine ([3H]-TdR) (0.5 μCi) and harvested. [3H]-TdR uptake was measured using PerkinElmer microβ2 2450 microplate counter.

MCF7 breast cancer cells [5] = test: Cell proliferation assay ([3H]-TdR); assay type: cell-based, human; details: [3H]-TdR incorporation at 72 h, increasing doses of recombinant cytokine (0 to 100 ng/ml)
Experimental: as §1, §5, §2, §6

MDA-MB231 cells = test: Cell proliferation assay ([3H]-TdR); assay type: cell-based, human; details: MDA-MB231 cells that do not express IL-17RB; data not shown
Experimental: as §2, §6

MCF7 breast cancer cells [6] = test: Transwell migration assay; assay type: cell-based, human; details: 100 ng/ml, 22 hours
Experimental: as §4
(§7) Migration Assay 20,000 cells were seeded on the upper chamber of trans well chambers in 1% FCS adequate medium alone (medium) or supplemented with recombinant human IL-17B (100 ng/ml) for 22 hours at 37° C. as indicated. The cells on the transwell were stained with 0.5% crystal violet prior imaging and enumeration. The number of cells migrated onto the transwell were counted (magnification ×4). The graph presents data after quantification in % of cell migration compared to non-treated cells. Results are the mean+/−SEM of two independent experiments, each performed in triplicate.

[7] = system: OAW42 ovarian cancer cells; test: Transwell migration assay; assay type: cell-based, human; details: 100 ng/ml, 22 hours
Experimental: as §4, §7

[8] = system: breast cancer cell lines that express IL-17RB; test: Cytotoxicity assay, docetaxel-induced cell death; assay type: cell-based; details: MCF7, T47D, MDA-MB436, BT20, MDA-MB468; cytokine 1 or 10 ng/ml; docetaxel 5, 10, 20 or 40 μg/ml for 7 h
Experimental: (§8) FIGS. 9A-9F: IL-17B inhibits docetaxel and doxorubicin-induced cell death. MCF7 (A), T47D (B), MDA-MB436 (C), BT20 (D) and MDA-MB468 (E) breast cells were cultured for 48 h in adequate complete medium alone (medium) or treated with recombinant human IL-17B at 1 or 10 ng/ml as indicated. Cells were then culture in Fetal Calf Serum (FCS) free medium supplemented with corresponding concentration of cytokine for 24 h and then further supplemented with docetaxel at 5, 10, 20 or 40 μg/ml as indicated for 7 h. The percentage of cell death (=cytotoxicity) was determined using the Cytotoxicity Detection Kit (Roche). (F) MCF7 cells were cultured for 48 h in adequate complete medium alone (medium) or treated with recombinant human IL-17B at 1 or 10 ng/ml as indicated. […] The percentage of cell death (=cytotoxicity) was determined using the Cytotoxicity Detection Kit (Roche). […]
(§9) The percentage of cell death (=cytotoxicity) was determined after 7 h of culture in the presence of docetaxel or doxorubicin using the Cytotoxicity Detection Kit (Roche) according to the manufacturer's instructions. […] Optical density was then read at 490 nm. The percentage of cytotoxicity is calculated as followed: %=100×(exp value−control medium value)/(Triton X100 treated cells value−control medium value)

MCF7 breast cancer cells [9] = test: Cytotoxicity assay, doxorubicin-induced cell death; assay type: cell-based; details: cytokine 1 or 10 ng/ml, doxorubicin 20 or 30 μM for 7 h
Experimental: as §8, §9

[10] = system: MDA-MB231 breast cancer cells; test: Matrigel invasion assay; assay type: cell-based, human; details: cultured 2 days with 100 ng/ml, Matrigel Invasion Chambers, 22 hours
Experimental: FIGS. 11A-11B: IL-17C and IL-17D increase invasion of MDA-MB231 breast cancer cells. MDA-MB231 were cultured for 2 days in complete adequate medium alone (medium) or supplemented with 100 ng/ml of recombinant human IL-17B, IL-17C or IL-17D as indicated. Cell invasiveness was then evaluated in Matrigel Invasion Chambers (A, representative photomicrographs, B, quantification).
Cells were cultured in adequate complete medium supplemented with 100 ng/ml of recombinant cytokines for 2 days (MDA-MB231) or 14 days (OAW42). Matrigel Invasion Chambers (BD BioCoat™ BD Matrigel™ Invasion Chamber, 24-well Cell culture inserts) were then used to study the invasiveness of cancer cells. 2.10^4 cells are then added to the upper compartment of the chambers in 1% FCS adequate medium alone or supplemented with 100 ng/ml of recombinant cytokines as indicated. Medium supplemented with 10% FCS is added to the lower wells of the chambers. Plates are incubated for 22 hours at 37° C. Transwell filters are then fixed and stained in Giemsa solution following which non-invading cells are removed from the upper surface of the transwell membrane using a cotton swab. Images of cells from three representative fields are captured digitally and the number of cells present on the transwell is counted.

[11] = system: OAW42 ovarian cancer cells; test: Cell proliferation assay ([3H]-TdR); assay type: cell-based, human; details: [3H]-TdR incorporation at 72 h, increasing doses of recombinant cytokine (0 to 100 ng/ml)
Experimental: as §5
HCT116, HT29, and SKOV3 cell lines were cultured in McCoy5a medium (Life technologies) supplemented with 10% FCS, 2% glutamine and 1% antibiotics (Life technologies). MCF7, T47D, MDA-MB231 and BT20 cell lines were cultured in RPMI 1640 medium supplemented as described above. SKMEL5, LOVO, OAW42, MDA-MB435S, MDA-MB436, MDA-MB468 cell lines and normal human dermal fibroblasts (NHDF) were grown in DMEM/F12 medium (Life Technologies) supplemented as described above. […]
as §3

Molecule	production of pro-inflammatory IL-6 [1]	cell proliferation [2]	cell proliferation [3]	cell invasiveness [4]	cell proliferation (T47D breast cancer cells)	cell proliferation (MCF7 breast cancer cells [5])	cell proliferation (MDA-MB231 cells)	cell migration (MCF7 breast cancer cells [6])	cell migration [7]	docetaxel-induced cell death (cytotoxicity) [8]	doxorubicin-induced cell death (cytotoxicity) (MCF7 breast cancer cells [9])	cell invasiveness [10]	cell proliferation [11]
B1	increase	increased	increased	increased	increased	increased	did not stimulate	increased	increased	decreased	protected	did not increase	–
B2	increase	–	–	–	–	–	–	–	–	–	–	–	–
B3	increase	–	–	–	–	–	–	–	–	–	–	–	–
B4	increase	–	–	–	increased	increased	–	–	–	–	–	increased	increased
B5	increase	–	–	–	–	increased	–	–	–	–	–	increased	increased
